The values below come from the supplement of paper PMC12042874.

± gives the uncertainty stated by the source.

The series in a line: amyloid nucleation score (Sup35N fusion, yeast selection) (log enrichment); library NNK3; higher = more nucleation; inactive = no reads after selection. In a few lines: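 Plasmid inserts were Illumina-sequenced at input and output from psi-negative yeast expressing Sup35N fused to peptides of 20 random codons. The yeast were induced with 100 μM copper sulfate for 24 hours and grown 7 days at 30°C on medium lacking adenine and uracil, and sequences with under 100 input reads were excluded. Nucleation score is the DiMSum log enrichment of output over input reads, centred on the mode score of non-aggregating sequences.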
Substance HTTALIGANDSA came in with an amyloid nucleation score of 0.024 ± 0.46.

In the case of IRHRTIWSYGSFY, the amyloid nucleation score entry is “inactive”.

LLCGSCWFYTMGHVSPNKRI: the amyloid nucleation score is 0.862 ± 0.11.

With ITMCRDFLLAPWPCLLQPSH, the amyloid nucleation score entry was “inactive”.

Turning to CGAQALAQWYLYLLSHAIQY, the amyloid nucleation score result is “inactive”.

For ANHDVLADVCRLSRRGVLRR, the amyloid nucleation score entry is “inactive”.

On to NVANRGLLHMELSVNKDWAM, for which the amyloid nucleation score was 0.699 ± 0.16.

As to FSSSPR, the amyloid nucleation score entry is “inactive”.

In the case of TALWYSYFSTKNDMSLQFAP, the amyloid nucleation score is -0.673 ± 1.1.

On to DLVCTSLTRVAYRELIVWWF, for which the amyloid nucleation score entry was “inactive”.

KATWSCLHLATHSASPCQSA: the amyloid nucleation score result is “inactive”.

Consider SNLRMRKNGVVDDIWPDERL, for which the amyloid nucleation score is -0.802 ± 1.3.

In the case of SVNIMRSLIWH, the amyloid nucleation score entry is “inactive”.

As to CYSNSEPISAYDD, the amyloid nucleation score entry was “inactive”.

Consider MWVGKHDVYTRDFM, for which the amyloid nucleation score entry is “inactive”.

Regarding RRSYTFRSVGKEWNIAYWYI, the amyloid nucleation score entry was “inactive”.

As for FMYSFDLWYKRLNCLMMLVF, the amyloid nucleation score entry is “inactive”.

In the case of LYAQNLV, the amyloid nucleation score result is “inactive”.

For the substance FSNVRDFGFGKDY, the amyloid nucleation score result was “inactive”.

For KFIWYIDDCWWCTTICSSGG, the amyloid nucleation score entry was “inactive”.

IHCSDVGALRMYVPSTGPFS: the amyloid nucleation score was -0.213 ± 0.64.

On to AVMYSCQYRDKWVEVAMVTS, for which the amyloid nucleation score entry was “inactive”.

As for PFGVKSMLAVYTHYVFGATV, the amyloid nucleation score result is “inactive”.

Take TRGRNTKDGVDGDLPADVLV: the amyloid nucleation score entry was “inactive”.

Consider SSLCYTHRACTCNFTKVDSF, for which the amyloid nucleation score entry is “inactive”.

Take CIVLLLTPSLGDWYTEDDFL: the amyloid nucleation score entry was “inactive”.

On to ETNQSMY, for which the amyloid nucleation score came out at 1.51 ± 0.075.

Regarding SSGKFIVLGRNAWTLAWTLT, the amyloid nucleation score entry was “inactive”.

For YARYMYYATNKINNWVVLKP, the amyloid nucleation score result is “inactive”.

On to CSKIFGRERMFYRVDMVS, for which the amyloid nucleation score result was “inactive”.

Consider VFPLSAY, for which the amyloid nucleation score result is “inactive”.

Consider VYCLSHNCMITSDNVRSIIF, for which the amyloid nucleation score entry is “inactive”.

As for DPTILSKVMLMEDTVKAREL, the amyloid nucleation score entry is “inactive”.

Turning to MISRSSNKGV, the amyloid nucleation score result is “inactive”.

In the case of ELLWGPMGSNWKSLVVYFSH, the amyloid nucleation score entry is “inactive”.

IMQFGDFYIIQRERRSYVLW: the amyloid nucleation score amounted to 2.25 ± 0.087.

Turning to SPFFYFFWPGFR, the amyloid nucleation score entry was “inactive”.

As for SVSSRHSAW, the amyloid nucleation score result was “inactive”.

Consider SRSLIRINWFRGKKLCYGFE, for which the amyloid nucleation score entry was “inactive”.

With MAYLNLVQV, the amyloid nucleation score result was “inactive”.

In the case of FVERTRKRVNVRRNRHVTET, the amyloid nucleation score entry was “inactive”.

Take YLDYSFREFCRMNQ: the amyloid nucleation score entry is “inactive”.

Turning to YDRVSMGRFIKR, the amyloid nucleation score entry is “inactive”.

Take IYGGCIFYRMSQCARMDTGE: the amyloid nucleation score result is “inactive”.

Turning to PVQQSGLVWRLGAIVVC, the amyloid nucleation score result is “inactive”.

On to MDVKKRQSSGVALRFELLDG, for which the amyloid nucleation score entry is “inactive”.

Turning to VIWLGRRCTFLHKPTSRGQW, the amyloid nucleation score came out at 0.021 ± 0.6.

Take VEDWATILSYY: the amyloid nucleation score result was “inactive”.

In the case of KGETEPYKDSMLQKLTGQLQ, the amyloid nucleation score result is “inactive”.

Substance FYGECKSVSGNCLTMNGRYT displayed an amyloid nucleation score of -0.561 ± 0.59.

For HTSPWVELPVGISRTCDEDR, the amyloid nucleation score result was “inactive”.

With NNFKGFFRRFTVGCSRTPPT, the amyloid nucleation score entry is “inactive”.

MMNGVGAWASFGLLNNYGGN gave an amyloid nucleation score of 0.291 ± 0.29.

DYTSYILLS: the amyloid nucleation score entry was “inactive”.

For VQGTTVDMDYYFTVSCLHAK, the amyloid nucleation score entry was “inactive”.

For the substance KWKVAKVGDWQAAPTLGSHR, the amyloid nucleation score result is “inactive”.

As to ASTMDW, the amyloid nucleation score result is “inactive”.

Regarding YQNILLAYYDWVVLYQ, the amyloid nucleation score entry was “inactive”.

With SVDVYRSCEVGKCGGSYSTF, the amyloid nucleation score entry was “inactive”.

Consider RWRIEEPTI, for which the amyloid nucleation score result was “inactive”.

For RRKKQFFFLFFSHRNLFFPV, the amyloid nucleation score was found to be 2.18 ± 0.097.

Consider DGPHLPDHGGLM, for which the amyloid nucleation score entry was “inactive”.

As to SLRYGREIKNMRQNCIDPWC, the amyloid nucleation score entry is “inactive”.

For FLFTFKIHPLGGMFGVLILS, the amyloid nucleation score entry is “inactive”.

Turning to VDSDHIIHSTVLISVLGELD, the amyloid nucleation score entry was “inactive”.

With NTIVLILHYFYNSMLASSVI, the amyloid nucleation score result was “inactive”.

On to NRLYVKAELCSDAFRIVVAR, for which the amyloid nucleation score result is “inactive”.

With RSYRI, the amyloid nucleation score entry was “inactive”.

In the case of KPGIRYYFISM, the amyloid nucleation score stood at 1.52 ± 0.12.

In turn, TVIMNLYAPP returned an amyloid nucleation score of 2.51 ± 0.053.

Consider ETLYSCQKGGQRQRKAG, for which the amyloid nucleation score entry was “inactive”.

For the substance PEFDLCDINSSLGSMRFWQW, the amyloid nucleation score entry is “inactive”.

For GCNHC, the amyloid nucleation score entry was “inactive”.

As for FFMPFRNLIHKLVTTEELYR, the amyloid nucleation score result is “inactive”.

With SSDTGRCIKVDALRCRMGSR, the amyloid nucleation score entry is “inactive”.

For ARCECESSTRVSSLVYLSRE, the amyloid nucleation score result was “inactive”.

As to FGSLPRQIMCMPA, the amyloid nucleation score result is “inactive”.

For YFCVCSCVDFGYASYRGYAA, the amyloid nucleation score result is “inactive”.

VGNYINVANMYSWGVIIRND came in with an amyloid nucleation score of 2.39 ± 0.072.

On to KVRRGQLKIRS, for which the amyloid nucleation score entry is “inactive”.

Regarding RMDWWYSGCLFMRYPALTAL, the amyloid nucleation score entry was “inactive”.

For GPYHELCNHRL, the amyloid nucleation score result was “inactive”.

Regarding HGVPSLLICWRVLNRSIFMV, the amyloid nucleation score entry is “inactive”.

As to CFVAGYRSIGLLRFITIFCV, the amyloid nucleation score entry is “inactive”.

For the substance KGSVMTCDSYTCFMLNSEVL, the amyloid nucleation score was found to be 1.47 ± 0.13.

Regarding IFIAKLENTVSRLFTFCFIM, the amyloid nucleation score result is “inactive”.

As to ILYSSYS, the amyloid nucleation score entry was “inactive”.

With YEMENDVS, the amyloid nucleation score result was “inactive”.

For the substance LNQYLYFVRDMGDVMFCLYF, the amyloid nucleation score result is “inactive”.

Consider SFDARCGWKLNMFYSCSFIQ, for which the amyloid nucleation score was -0.009 ± 0.81.

For SMSWRSHEAMCTGSYFNLCD, the amyloid nucleation score entry was “inactive”.

YDVFLIL: the amyloid nucleation score result was “inactive”.

The substance RHLDNFNINVTLNLSFRVGM returned an amyloid nucleation score of 2.52 ± 0.089.

In the case of LVCFARVRKMEAEAFMKLVW, the amyloid nucleation score worked out at 0.64 ± 0.26.

As for YDLRAALKV, the amyloid nucleation score result was “inactive”.

Consider LKVVSKVLYNSSYPVRYVLR, for which the amyloid nucleation score entry is “inactive”.

Turning to IGVIWRFVLWSGPRTDSQVS, the amyloid nucleation score result is “inactive”.

Consider WSPGESNTLVGVCIEDALRS, for which the amyloid nucleation score result was “inactive”.

For GSRRWFEFFVPWLQLD, the amyloid nucleation score entry was “inactive”.

As for CWLAAFSFRRSVLSCQGGQG, the amyloid nucleation score entry is “inactive”.

As to RISLDNTWGFL, the amyloid nucleation score entry was “inactive”.

YMLLVSGFA: the amyloid nucleation score entry was “inactive”.

Take NNLFWHNAVCLGALEEYLSK: the amyloid nucleation score entry is “inactive”.

For the substance TGRVLGYGLL, the amyloid nucleation score result is “inactive”.

In the case of LLWSCCRGRMYDNMFHGKVK, the amyloid nucleation score entry is “inactive”.

On to GSTCSDLLALYPWYVRIKEI, for which the amyloid nucleation score entry was “inactive”.

The substance INLLVSVKGWYYVAPTAWYE yielded an amyloid nucleation score of 1.16 ± 0.15.

As for ILRFGHPWDRRSK, the amyloid nucleation score result is “inactive”.

With PLYQSYYHLEPSCDWCYSSR, the amyloid nucleation score was -0.144 ± 0.28.

With GPSWVTHESRKCTCQARDKV, the amyloid nucleation score result is “inactive”.

Regarding AWTIRGQA, the amyloid nucleation score result is “inactive”.

LSLCRNKSIKWVFSLMEIL: the amyloid nucleation score result was “inactive”.

For the substance ADRMDGDSTGFYSTNLRGYS, the amyloid nucleation score result was “inactive”.

With VFSNGSRDAWSFFNQKSNRF, the amyloid nucleation score was determined as 0.193 ± 0.21.

In the case of SLTYGRRWLFDWRSTMKGKA, the amyloid nucleation score result was “inactive”.

In the case of TVACNVFYQLCVE, the amyloid nucleation score result was “inactive”.

On to SLIGNSDSPWFLRQTCTYTK, for which the amyloid nucleation score result was “inactive”.

For the substance IPSNHSINRCYLDIWAQFLG, the amyloid nucleation score entry is “inactive”.

On to SACSVIFTEYINVSLLLSST, for which the amyloid nucleation score is 0.251 ± 0.42.

On to SCHSSSGGWEVSGNYRRGKL, for which the amyloid nucleation score result was “inactive”.

In the case of VPSVYKKRWWYHKPWHNRHV, the amyloid nucleation score result is “inactive”.

In the case of LLPAI, the amyloid nucleation score result is “inactive”.

For DAYREY, the amyloid nucleation score is -0.557 ± 1.2.

Regarding PKNFLSVETF, the amyloid nucleation score result was “inactive”.

As for WSMLPLKNTIAKQ, the amyloid nucleation score result was “inactive”.

Turning to CYVDVI, the amyloid nucleation score entry is “inactive”.

As to LRGDGLMIVIVVWCIYGYLC, the amyloid nucleation score result was “inactive”.

In the case of ALQYGNHRGCSYGCMITFVR, the amyloid nucleation score result is “inactive”.

As for LMVSREFWCSLSKV, the amyloid nucleation score entry was “inactive”.

YLSSSYVVGDMSCV: the amyloid nucleation score result is “inactive”.

Turning to TSLVKRSALVFYTGTLIYPF, the amyloid nucleation score result was “inactive”.
